# Test results from publication PMC11069190.
# Columns and labels:
# Assay in all cases: EMSA
# [1] = target: Cbf1 (Saccharomyces cerevisiae) (UniProt P17106); settings: apparent Kd on reconstituted nucleosome; 10.7 mM HEPES-KOH pH 7.9, 4 mM Tris-Cl, 80.9 mM NaCl, 19.1 mM KCl, 5.4 mM MgCl2, 0.2 mM Mg acetate, 0.05% NP-40, 10% glycerol, 0.2 uM ZnCl2, 0.2 mM EDTA, 0.4 mM
# [2] = target: T1, Reb1 (Saccharomyces cerevisiae) (UniProt P21538); settings: apparent Kd on reconstituted nucleosome; 10.7 mM HEPES-KOH pH 7.9, 4 mM Tris-Cl, 80.9 mM NaCl, 19.1 mM KCl, 5.4 mM MgCl2, 0.2 mM Mg acetate, 0.05% NP-40, 10% glycerol, 0.2 uM ZnCl2, 0.2 mM EDTA, 0.4 mM
# T1 sequence: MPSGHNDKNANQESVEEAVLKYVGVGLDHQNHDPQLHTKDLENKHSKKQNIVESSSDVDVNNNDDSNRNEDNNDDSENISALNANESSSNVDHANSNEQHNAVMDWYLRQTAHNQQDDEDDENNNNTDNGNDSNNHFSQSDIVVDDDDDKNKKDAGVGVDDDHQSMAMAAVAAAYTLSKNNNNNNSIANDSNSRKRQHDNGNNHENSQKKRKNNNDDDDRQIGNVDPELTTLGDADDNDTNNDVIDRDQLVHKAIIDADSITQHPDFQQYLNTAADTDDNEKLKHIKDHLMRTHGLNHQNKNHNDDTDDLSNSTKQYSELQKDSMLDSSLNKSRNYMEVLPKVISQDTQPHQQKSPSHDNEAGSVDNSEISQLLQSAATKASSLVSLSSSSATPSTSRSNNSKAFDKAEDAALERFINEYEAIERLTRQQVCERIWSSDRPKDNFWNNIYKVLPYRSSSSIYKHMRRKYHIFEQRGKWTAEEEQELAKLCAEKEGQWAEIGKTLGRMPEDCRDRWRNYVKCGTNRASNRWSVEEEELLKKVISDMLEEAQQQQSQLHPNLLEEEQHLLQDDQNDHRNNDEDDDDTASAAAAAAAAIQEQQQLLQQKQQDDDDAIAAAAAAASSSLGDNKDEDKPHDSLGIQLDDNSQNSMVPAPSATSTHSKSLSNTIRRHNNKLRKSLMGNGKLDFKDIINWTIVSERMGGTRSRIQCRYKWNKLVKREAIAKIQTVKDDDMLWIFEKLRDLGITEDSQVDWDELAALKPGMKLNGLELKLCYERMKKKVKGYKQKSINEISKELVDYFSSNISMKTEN
# [3] = target: T2, Rap1 (Saccharomyces cerevisiae) (UniProt P11938); settings: 10.7 mM HEPES-KOH pH 7.9, 4 mM Tris-Cl, 80.9 mM NaCl, 19.1 mM KCl, 5.4 mM MgCl2, 0.2 mM Mg acetate, 0.05% NP-40, 10% glycerol, 0.2 uM ZnCl2, 0.2 mM EDTA, 0.4 mM
# T2 sequence: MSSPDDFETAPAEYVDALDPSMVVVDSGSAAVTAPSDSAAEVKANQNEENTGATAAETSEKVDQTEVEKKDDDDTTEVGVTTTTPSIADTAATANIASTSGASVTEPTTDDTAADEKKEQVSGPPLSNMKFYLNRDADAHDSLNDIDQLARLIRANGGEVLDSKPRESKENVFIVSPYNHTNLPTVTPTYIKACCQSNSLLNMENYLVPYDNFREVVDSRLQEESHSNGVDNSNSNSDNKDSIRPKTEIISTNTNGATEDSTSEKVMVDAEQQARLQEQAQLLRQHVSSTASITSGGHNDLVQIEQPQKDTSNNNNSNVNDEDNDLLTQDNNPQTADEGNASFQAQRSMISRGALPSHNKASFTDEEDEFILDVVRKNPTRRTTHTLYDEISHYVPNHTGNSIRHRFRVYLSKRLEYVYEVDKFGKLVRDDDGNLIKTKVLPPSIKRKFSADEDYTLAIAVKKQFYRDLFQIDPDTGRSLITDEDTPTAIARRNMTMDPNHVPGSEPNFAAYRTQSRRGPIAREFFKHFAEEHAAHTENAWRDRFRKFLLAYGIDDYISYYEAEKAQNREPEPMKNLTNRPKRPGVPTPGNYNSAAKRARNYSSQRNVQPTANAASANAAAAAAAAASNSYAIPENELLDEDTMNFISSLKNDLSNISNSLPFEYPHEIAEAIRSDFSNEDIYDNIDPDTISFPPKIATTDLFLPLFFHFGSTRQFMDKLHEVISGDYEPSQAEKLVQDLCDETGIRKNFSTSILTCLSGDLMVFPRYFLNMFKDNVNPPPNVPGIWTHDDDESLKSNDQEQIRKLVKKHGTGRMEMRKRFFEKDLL
# [4] = target: T3, Abf1 (Saccharomyces cerevisiae) (UniProt P14164); settings: apparent Kd on reconstituted nucleosome; 10.7 mM HEPES-KOH pH 7.9, 4 mM Tris-Cl, 80.9 mM NaCl, 19.1 mM KCl, 5.4 mM MgCl2, 0.2 mM Mg acetate, 0.05% NP-40, 10% glycerol, 0.2 uM ZnCl2, 0.2 mM EDTA, 0.4 mM
# T3 sequence: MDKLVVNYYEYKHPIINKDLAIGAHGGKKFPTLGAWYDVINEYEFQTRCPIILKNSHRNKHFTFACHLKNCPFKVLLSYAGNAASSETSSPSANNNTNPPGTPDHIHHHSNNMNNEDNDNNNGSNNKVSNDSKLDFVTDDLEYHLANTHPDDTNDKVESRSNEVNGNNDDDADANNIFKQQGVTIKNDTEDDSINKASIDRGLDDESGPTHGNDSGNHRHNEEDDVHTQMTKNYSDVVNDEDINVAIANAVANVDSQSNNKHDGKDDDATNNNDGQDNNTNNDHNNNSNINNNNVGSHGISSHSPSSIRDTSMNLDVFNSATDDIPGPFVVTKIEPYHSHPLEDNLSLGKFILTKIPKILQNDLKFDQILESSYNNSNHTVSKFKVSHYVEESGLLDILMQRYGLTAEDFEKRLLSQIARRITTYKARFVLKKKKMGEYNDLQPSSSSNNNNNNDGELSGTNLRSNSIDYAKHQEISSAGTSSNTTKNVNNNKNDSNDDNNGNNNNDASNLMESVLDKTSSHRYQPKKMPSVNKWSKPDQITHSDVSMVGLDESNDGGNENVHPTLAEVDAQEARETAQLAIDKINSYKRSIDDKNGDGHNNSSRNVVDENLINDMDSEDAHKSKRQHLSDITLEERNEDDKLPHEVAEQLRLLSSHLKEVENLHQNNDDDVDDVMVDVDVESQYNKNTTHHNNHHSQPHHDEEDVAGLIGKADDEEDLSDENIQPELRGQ
# Chain of UniProt P17106 (P17106 whole entry): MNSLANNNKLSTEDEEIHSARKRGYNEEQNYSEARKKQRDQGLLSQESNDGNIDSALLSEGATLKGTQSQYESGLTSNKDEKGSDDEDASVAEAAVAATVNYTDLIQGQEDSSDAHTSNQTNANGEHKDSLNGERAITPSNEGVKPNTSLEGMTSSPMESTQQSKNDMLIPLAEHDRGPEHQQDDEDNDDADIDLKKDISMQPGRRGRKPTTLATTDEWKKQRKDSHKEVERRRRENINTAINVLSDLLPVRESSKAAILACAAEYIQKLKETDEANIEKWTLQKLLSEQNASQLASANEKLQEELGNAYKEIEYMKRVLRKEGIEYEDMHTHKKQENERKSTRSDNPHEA
sequence,measurement,setting,value
GGTCGCTGTTCAATACATGCACAGGATGTATATATCTGACACGTGCCTGGAGACTAGGGAGTAATCCCCTTGGCGGTTAAAACGCGGGGGACAGCGCGTACGTGCGTTTAAGCGGTGCTAGAGCTGTCTACGACCAATTGAGCGGCCTCGGCACCGGGATTCTCCAGGGCGGCCGCTGTCACGTGGGCTAGTAATGGTGATGACCGCGGACCTGCAGGCATGCAAGC (double strand) [20-NC-60Cbf1bs nucleosome],Kd,[1],7.8 nM
GGTCGCTGTTCAATACATGCACAGGATGTATATATCTGACACGTGCCTGGAGACTAGGGAGTAATCCCCTTGGCGGTTAAAACGCGGGGGACAGCGCGTACGTGCGTTTAAGCGGTGCTAGAGCTGTCTACGACCAATTGAGCGGCCTCGGCACCGGGATTCTCCAGGGCGGCCGCTCGGGTAAAGCATCACCATGGTGATGACCGCGGACCTGCAGGCATGCAAGC (double strand) [20-NC-60Reb1bs nucleosome],Kd,[2],4.9 nM
GGTCGCTGTTCAATACATGCACAGGATGTATATATCTGACACGTGCCTGGAGACTAGGGAGTAATCCCCTTGGCGGTTAAAACGCGGGGGACAGCGCGTACGTGCGTTTAAGCGGTGCTAGAGCTGTCTACGACCAATTGAGCGGCCTCGGCACCGGGATTCTCCAGGGCGGCCGCTACACCCATACATTTCCATGGTGATGACCGCGGACCTGCAGGCATGCAAGC (double strand) [20-NC-60Rap1bs nucleosome],Kd,[3],0.8 nM
GGTCGCTGTTCAATACATGCACAGGATGTATATATCTGACACGTGCCTGGAGACTAGGGAGTAATCCCCTTGGCGGTTAAAACGCGGGGGACAGCGCGTACGTGCGTTTAAGCGGTGCTAGAGCTGTCTACGACCAATTGAGCGGCCTCGGCACCGGGATTCTCCAGGGCGGCCGCTTATCGTATTGCATGATATGGTGATGACCGCGGACCTGCAGGCATGCAAGC (double strand) [20-NC-60Abf1bs nucleosome],Kd,[4],1 nM
